Measured values reported in patent US8313731B2 (priority 2002, dated 2012).

Test system: HeLa cells
Type: cell-based, Human

B1: Holo-neocarzinostatin (protein, UniProt P0A3R9 35-147, looked up)
Neocarzinostatin: AAPTATVTPSSGLSDGTVVKVAGAGLQAGTAYDVGQCAWVDTGVLACNPADFSSVTADANGSASTSLTVRRSFEGFLFDGTRWGTVDCTTAACQVGLSDAAGNGPEGVAISFN
modifications: enediyne chromophore bound
For B1, the cell survival was at least 90%, the “incubation time within which full cytotoxic effect develops” value (37° C.) was at most 6 min and the IC50 (read-out: concentration of drug that kills 50% of the cell population) was 0.71 ± 0.05 nM.
